Reference: CN115850497A (SHAANXI MAI YUAN BIOTECHNOLOGY CO LTD, dated 2023)

B1: 单克隆抗体10F1 (hybridoma-derived, clone 10F1-G8-D9) (antibody, V domains shown)
VH: EVQLQESGPSLVKPSQTLSLSCSVTGDSITSGYWNWIRKFPGNKLEYMGFISYSGNTYYNPSLKSRISITRDTSKNQYFLQLNSVTTEDTATYYCVRKGDYDGAWFAYWGQGTLVTVSA
VL: DIQMTQSPASLSASVGETVTITCRASGNIHNYLAWYQQKQGKSPQLLVYNAKTLADGVPSRFSGSGSGTQYSLKINSLQPEDFGSYYCQHFWSTPLTFGAGTKLELK
notes: Mouse hybridoma antibody; Tested as hybridoma culture supernatant; also called YKL-40单克隆抗体
B2: 重组单克隆抗体10F1 (expressed from 10F1m2a + 10F1mk in 293T cells) (antibody, V domains shown)
VH: B1 VH
VL: B1 VL
notes: also called 重组10F1单克隆抗体

Assays:
[1] = target: YKL-40-strep (YKL-40 protein expressed from pGEX 4t-1 in E. coli BL21(DE3)) (human) (UniProt P36222); experiment: ELISA, supernatant of subclone 10F1-G8-D9 on coated YKL-40, 3rd screen
[2] = target: YKL-40-strep (YKL-40 protein expressed from pGEX 4t-1 in E. coli BL21(DE3)) (human) (UniProt P36222); experiment: ELISA, uncloned hybridoma supernatant (plate 10, well F1) on coated YKL-40, 1st screen
[3] = target: T1, YKL-40-6his expressed from pcDNA3.1 in transfected 293T cells (human, UniProt P36222 22-383); experiment: CBA, immunofluorescence of hybridoma supernatant on transfected fixed 293T cells
T1 construct: whole, on cells; also called YKL-40(YKL-40-6his); not shown: 6his tag

[4] = target: T2, Q YKL-40-293-310-6his (YKL-40 construct lacking residues 293-310) (human, UniProt P36222 22-383); experiment: immunofluorescence on transfected, acetone-fixed 293T cells
T2 construct: also called 缺失氨基酸区间293-310组; not shown: 6his tag

[5] = target: T1, YKL-40-6his expressed from pcDNA3.1 in …; experiment: immunofluorescence of 293T supernatant on transfected fixed 293T cells

T1 sequence (P36222 22-383): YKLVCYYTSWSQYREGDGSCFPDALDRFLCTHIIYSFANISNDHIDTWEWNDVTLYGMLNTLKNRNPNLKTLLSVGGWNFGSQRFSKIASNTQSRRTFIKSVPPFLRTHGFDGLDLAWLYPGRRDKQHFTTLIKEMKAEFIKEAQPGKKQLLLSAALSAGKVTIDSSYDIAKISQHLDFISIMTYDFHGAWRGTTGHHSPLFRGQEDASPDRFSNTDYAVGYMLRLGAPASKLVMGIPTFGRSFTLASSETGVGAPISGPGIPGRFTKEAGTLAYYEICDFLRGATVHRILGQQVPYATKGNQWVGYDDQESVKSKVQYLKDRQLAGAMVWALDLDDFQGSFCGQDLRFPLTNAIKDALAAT
T2 sequence (P36222 other isoform, or with tags, fused parts or gaps limits assumed): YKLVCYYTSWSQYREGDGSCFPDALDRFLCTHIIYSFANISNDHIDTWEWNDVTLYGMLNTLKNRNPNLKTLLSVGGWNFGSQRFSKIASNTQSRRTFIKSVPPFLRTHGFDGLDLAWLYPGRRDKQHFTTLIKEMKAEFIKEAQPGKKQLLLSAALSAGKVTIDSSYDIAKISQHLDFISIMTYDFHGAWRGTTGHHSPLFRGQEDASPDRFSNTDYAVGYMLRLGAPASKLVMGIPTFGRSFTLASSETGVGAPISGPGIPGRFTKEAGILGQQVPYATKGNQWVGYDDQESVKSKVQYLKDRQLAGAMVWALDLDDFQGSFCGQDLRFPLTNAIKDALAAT

| Binder | OD450 [1] | OD450 [2] | binding result [3] | binding result [4] | binding result [5] |
| --- | --- | --- | --- | --- | --- |
| B1 | 1.14 | 0.905 | binds |  |  |
| B2 |  |  |  | no binding | binds |
